The nanobody polyreactivity screen of Harvey et al. (2022)

Assay: yeast display, Sf9 membrane polyspecificity reagent, FACS + sequencing; frameworks hold sequencing errors
How it was run: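 Galactose induction of a Saccharomyces cerevisiae BJ5465 synthetic nanobody display library ran 36–48 hours. The cells were then stained for 1 hour at 4 °C with 10% biotinylated, detergent-solubilized Sf9 membrane reagent, pulled down on streptavidin microbeads and FACS-sorted into low and high (top ~1%) gates on expression and reagent-binding fluorescence. Labels for polyreactivity follow the gate of origin.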

| Sequence | polyreactivity (PSR sort gate) |
| --- | --- |
| QVQLVESGGGLVQAGGSLRLSCAASGFTFGGNVMGWYRQAPGKERELVAAIRGTGGNTYYADSVKGRFTISRDNAKNTVYLQMNSLKPEDTAVYYCAAAQRELPTVRRNYWGQGTQVTVSS | high polyreactivity |
| QVQLVESGGGLVQAGGSLRLSCAASGRIFVLNAMGWYRQAPGKERELVAGITDGGSTNYADSVKGRFTISRDNAKNTVYLEMNSLKPEDTAVYYCAAVVYEYLYDFQAFVEDAGYYWGQGTQVTVSS | low polyreactivity |
| QVQLVESGGGLVQAGGSLRLSCAASGSIRYYAMGWYRQAPGKERELVAAISSRGTNTYYADSVKGRFTISRDNAKNTVYLQMNSLKPEDTAVYYCNAVVGLGYNYWGQGTQVTVSS | high polyreactivity |
| KVQLVQSGGGLVQAGGILRLSCAASGRIFSSYAMGWYSQAPGKERELVAVISQRGGSTSYADSVKGRFTISRDNAKNTVYLQMNSLKPEDTAVYYCARRPGKGNNYWGQGTQVTVSS | high polyreactivity |
| QVQLVESGGGLVQAGGSLRLSCAASGRIFTHNAMGWYRQAPGKERELVAAISYSGVSTYYADSVKGRFTISRDNAKNTVYLQMNSLKPEDTAVYYCARDRWKWHYGYDYWGQGTQVTVSS | low polyreactivity |
| QVQLVESGGGLVQAGGSLRLSCAASGFIFDWYAMGWYRQAPGKERELVAAISYSGGSTYYADSVKGRFTISRDNAKNTVYLQMNSLKPEDTAVYYCNADIWYGDMDYWGQGTQVTVSS | high polyreactivity |
| QVQLVESGGGLVQAGGSLRLSCAASGRIFRANTMGWYRQAPGKERELVAVITASGGSTYYADSVKGRFTISRDNAKNTVYLQMNSLKPEDTAVYYCNRVPRTRLSGHDYWGQGTQVTVSS | high polyreactivity |
| QVQLVESGGGLVQAGGSLRLSCAASGITLGRYAMGWYRQAPGQERELVAAISSWSGGSTTYADSVKGRFTISRDNAKNTVYLQMNSLKPEDTAVYYCNARRYYGRYYLGHSDYDYWGQGTQVTVSS | high polyreactivity |
| QVQLVESGGGLVQAGGSHRLSCAASGQTVYYYPMGWYRQAPGKEREVVASISTGGNTYYADSVKGRFTISRDNAKNTVYLQMNSLKPEDTAVYYCAAGLYSWSGFASYNSAYGYWGQGTQVTVSS | low polyreactivity |
| QVQLVESGGGLVQAGGSLRLSCAASGIIFYGYAMGWYRQAPAKERELVAAITYSGGSTYYADSVKGRFTISRDNAKNTVYLQMNSLKPEDTAVYYCDAYDAYSPYLALYDYWVQGTQVTVSS | low polyreactivity |
| QVQLVESGGGLVQAGGSLRLSCAASGITFYFNAMGWYRQAPGKERELVAVITSGGSTNYADSVKGRFTISRDNAKNTVYLQMNSLKPEDTAVYYCANDKSYSSWSAQYDYWGQGTHVTVSS | low polyreactivity |
| QVQLVESGGGLVQAGGSLRLSCAASGFTFTWYAMGWYRQAPGKERELVASISRSGGSTYYADSVKGRFTISRDNAKNTVYLQMNSLKPEDTAVYYCAAEIWLEYVGYDYWGQGTQVTVSS | high polyreactivity |
| QVQLVESGGGLVQAGGSLRLSCAACGNTFYWNAMGLYRQAPGKERELVAAISTTGVSTYYADSVKGRFTISRDNAKNTVYLQMNSLKPEDTAVYYCAAEIIGYHTIYDYWGQGTQVTVSS | low polyreactivity |
| QVQLVESGGGLDQAGGSLRLSCAASGSTFNWYTMGWYRQAPGKERELVAAISLNGGRTYYADSVKGRFTISRDNAKNTVYFQMNSLKQEDTAVYYCAAQISFYFAQYNLARFRGYYWGQGTQVTVSS | high polyreactivity |
| QVQLVESGGGLVEAGGSLRLICAASGSTFGWYAMGWSRQAPGKEREFVAAISWSGTSTYYADSVKGRFTISRDNAKNTVYLQMNSLKPEDTAVYYCNARSKRANRSLGLGYWGQGTQVTVSS | low polyreactivity |
| QVQLVESGGGLVQAGGSLRLSCAASGRTFGYYAMGWYRQAPGKERELVAPISWSGANTYYADSVKGRFTISRDNAKNTVYLQMNSLKPEDTAVYYCAAVRYYSYAYSIRYGYWGQGTQVTVSS | high polyreactivity |
| QVQLVESGGGLVQAGGSLRLSCAASGYIFKHYAMGWYIQAPGKERELVAAITSGGRTNYADSVKGRFTISRDNAKNTVFLQMNSLIPEDTAVYYCAARRYRYFDGTVPLDYWGQGTLVTVSS | high polyreactivity |
| QVQLVESGGGLVQAGGSLRLSCAASGFTFTYYTMGWYRQAPGKERELVAAISYSGGSTYYADSVKGRFTISRDNAKNTVYLQMNSLKPEDTAVYYCNAVTSWAGSLDYWGQGTQVTVSS | high polyreactivity |
| QVQLVESGGGLVQAGGSLRLSCAASGRIFNIYAMGWYRQAPGKERELVAAISGSGGRTSYADSVKGRFTISRDNAKNTVYLQMNSLKPEDTAVYYCAADYSYYTSFRYDYWGQGTQVTVSS | low polyreactivity |
| QVQLVESGGGLVQAGGSLRLSCAASGSIFGAYAMGWYRQAPGKERELVAVISRSGGRTYYADSVKGRFTISRDNAKNTVYLQMNSLKPVDTAVYYCAADTRYVQYDYWGQGTQVTVSS | high polyreactivity |

| Sequence | polyreactivity (PSR sort gate) |
| --- | --- |
| QVQLVESGGGLVQAGGSLRLSCAASGSIFYLNAMGWYRQAPGKERDLVAAIRWSGGSTRYADSVKGRCTISRDNAKNTVYLQMNSLKPEDTAVYYCAKYNPVLVYHWWYYYWGQGTQVTVSS | high polyreactivity |
| QVQLVESGGGLVQAGGSLRLSCASSGFIFRYYAMGWYRQAPGKERELVAAISWRGDSTSYADSVKGRFTISRDNAKYTVYLQMNSLKPEDTAVYYCAAGRYLAYLYWGRYEYYYWGQGTQVTVSS | low polyreactivity |
| QVQLVESGGGLVQAGGSLRLSCAASGSIFWRYAMGWYRQAPGKERELVAVISDRGGITYYADSVKGRFTISRDNAKNTVYLQMNSLKPEDTAVYYCNAVDSDRSDPSEYDYWGQGTQVTVSS | low polyreactivity |
| QVQLVESGGGLVQAGGSLRLSCAASGITFDDYAMGWYRQAPGKERELVAAISVSGGDTYYADSVKGRFTISRDNAKNTVYLQMNSLKPEDSAVYYCAAEEVSPRWYDYWGLGTQVTVSS | low polyreactivity |
| QVQLVESGGGLVQAGGSLRLSCAASGSIFVPYAMGWYRQAPGKERELVAAISSRGGSTYYADSVKGRFTISRDTAKNTVYLQMNSLKPEDTAVYYCNTEISRNYYWALYGYWGQGTQVTVSS | low polyreactivity |
| QVQLVESGGGLVQAGGSLRLSCAASGSTFRRYTMGWYRQAPGKERELVAAISRSAGSTSYADSVKGRFTISRDNAKNTVYLQMNSLKPEDTAVYYCNARVPLRQYSNYYWGQGTQVTVSS | high polyreactivity |
| QVQLVESGGGLVQAGGSLRLSCAASGSNFGIYAMGWYRQAPGKERELVAAISSRGSTYYADSVKGRFTISRDNAKNTVYLQMNSLKPEDTAVYYCAAGYAWYNYWGQGTQVTVSS | high polyreactivity |
| QVQLVESGGGLVQAGGSLRLSCAASGSTFYRNAMGWYRQAPGKERELVAAITSRGTRTFYADSVKGRFTISRDNAKNTVYLQMNSLKPEDTAVYYCAVTYQAEDEYDYWGQGTQVTVSS | low polyreactivity |
| QVQLVESGIGLVQAGGSLRLSCAASGRTLGGNAMGWYRQAPGKERELVAAINWSGGITYYADSVKGRFTISRDNAKNTVYLQMNSLKPEDTAVYYCARYKYNRQTRVEYGYWGQGTLVTVSS | high polyreactivity |
| QVQLVESGGGLVQAGGRLRLSCAASGITSLDNAMGWYRQAPGKQRELVAGIKSGGSTNYADSVKGRFTISRDNAKNTVYLQMNSLKPEDTAVYYCAADDFIGSGRLVARGRYDYWGQGTQVTVSS | low polyreactivity |
| QDQLVESGGGLVQAGGSLRLSCAASGNIIRKYAMGWYRQAAGKEREFVAAISSSGGRTYYADSVKGRFTISRDNAKNTVYLQMNSLKPEDTAVYYCAAEDWSYYDYDYWGQGTQVTVSS | high polyreactivity |
| KLQLVESGRGLVQEGGSLRLSCAASGSTFGANAMGWYRHAPGKASEFVAAISRSGVRTYYADSVKGRFTISRDNAKNTVYLQMNSQKPEDTAVYYCAAYGYWWTYTRDDYWGQGTQGTVSS | low polyreactivity |
| QVQLVESGGGLVQAGVSLRLSSAASGSTLGYNVMGWYRQAPGKERELVAAISGDGSTNYADSVKGRFTISRDNAKNTVYLQMNSLKPEDTAVFYCNAPFWGYRTSFSYPVVQRFDYWGQGTQVTVSS | low polyreactivity |
| QVQLVESGGGLVQAGGSLRLSCAASGRIFYLNDMGWYRQAPGKERELVATITSTGGSTYYADSVKGRFTISRDNAKNTVYLQMNSLKPEDTAVYYCAAGGWRAYSYTARYDYWGQGTQVTVSS | low polyreactivity |
| QVQLVESGGGLVQAGGSLRLNCAASGRNLPFYAMGWYRQAPGKERDLVATISWTSDSTYYADSVKGRFTISRDNPKNTVFLQMNSLIREVTGVYYCASVYTYTYASTVIYDHWGQGTQVTVSS | low polyreactivity |
| QVQLVESGGGLVQAGGSLRLSCAASGSIFEIYDMGWYRQAPGKERELVASITWSGGSTYYADSVKGRFTISRDNAKNTVYLQMNSLKPEDTAVYYCATDKLYGRTVRMDYWGQGTQVSVSS | low polyreactivity |
| QVQLVESGGGLVQAGGSLRLSCAASGITFRWYAMGWYRPAPGKEWELVAAMNSRGTSTYYADSVKGRFTISRDNAKNTVYLQMNSLKPEDTSVYYCAATYLYIHGGFRPQYDYWGQGTQVTVSS | high polyreactivity |
| QVQLVESGGGLVQAGGSLRLSCAASGRTFAIYAMGWYRQAPGKERELVATIRGGSTYYADSVKGRFTISRDNAKNTVYLQMNSLKPEDTAVYYCAAEFLYASVYYSYWGQGTQVTVSS | high polyreactivity |
| QVQRVESGGGLVQAGGSLRLSCAASGRIFGYNAMGWSRPAPGKERELVASISRDGDRTYYADSVKGRVTISRDNAKNTVYLQMNSLKPEDTAVDYCATRQYRYGYLYDYWAQGTQVTVSS | high polyreactivity |
| QVQLVESGGGLVQAGGSLRLSCAASGSIFQSYAKGWYRQAPGKERELVAAISRGGSTYYADSVKGRFTISRDNAKNTVYLQMNSLKPEDTAVYYCAAGSGGGKYLYYYWGQGTQVTVSS | low polyreactivity |
